Read-outs that look alike come from different tables or passages of the source.
Key:
Hcy, Cys, Cth, and Met = test: Metabolite levels in plasma and tissues of KO mice at 18-19 days of age; assay type: in vivo
Experimental: (§1) Plasma metabolites homocysteine, cystathionine and cysteine were determined by stable-isotope-dilution liquid chromatography mass spectrometry as previously described in (Allen et al., 1993, Metabolism, 42: 1448-1460). Measurements of total non-protein bound homocysteine and other aminothiols as well as of amino acids in tissue were performed as described in (Maclean et al., 2010b. Mol. Genet. Metab. 101, 153-162). Metabolites were determined by stable-isotope-dilution liquid chromatography mass spectrometry.
Plasma and tissue metabolites were measured in the groups of wild-type mice (control), untreated homozygous −/− affected KO mice, and 400MA PEG-htCBS C15S-treated KO mice. The treated group was administered subcutaneous injections of 400MA PEG-htCBS C15S 3 times per week at a dose of 7.5 mg/kg from the age of 2 days. Plasma and tissues were harvested 24 hours after the last injection.

Hcy, Cth, Cys, Met = test: Diet study (regular vs Met-restricted diet) in I278T mice: plasma metabolites; assay type: in vivo
Experimental: A diet study was performed in I278T mice and analyze them. Plasma metabolites of 10 weeks old mice: +/− I278T (control), −/− I278T (negative control), and −/− treated with 20NHS PEG-[…] (OT-58) mice. Each group was further divided into subgroups: one on a regular diet (8.2 g/kg Met TD.01084 diet+zinc water) (REG) and one on a methionine-restricted diet (0.5 g/kg Met TD.110591 diet+betaine water) (MRD). Treatment was begun at W5 of age.

[1] = tested on: homocysteine, cystathionine, cysteine; test: Pharmacodynamics after a single dose of PEGylated htCBS C15S in HO mice; assay type: in vivo
Experimental: as §1
For 20NHS PEG-htCBS C15S, HO mice were administered SQ a dose of 5, 10 or 15 mg/kg dose or were administered IV a dose of 10 mg/kg. For 400MA-htCBS C15S, HO mice received a single dose of 10 mg/kg either SC or IV of one of the three forms: (i) a mixture of all species, where no separation of individual forms has been attempted (mix), (ii) a homoPEGylated specie (Peak 1), and (iii) a hetero/hemiPEGylated species (Peak 2).
Both male and female HO mice were used in this example, and each group contained 3 to 4 mice. Two groups of mice designated “A” and “B” were used for each route of administration to minimize the blood volume taken from any one mouse. For SC administration, blood was collected from group A at 0.5, 3, 24, and 72 hours post-injection and from group B at 1, 6, 48, and 96 hours post-injection. […]

[2] = for Peak @ SS, predicted / Trough @ SS, predicted: 80% bioavailability assumed; for Extrapolated concentration: hypothetical single dose curve
Experimental: Using a dose of 5 mg/kg and correcting for the difference in body surface area between humans (70 kg) and mice (0.025 kg), a dose of 0.4 mg/kg was estimated to be the efficacious human equivalent dose (HED). […] Since the substrate for 20NHS PEG-htCBS C15S activity (Hcy and serine) was the same across species and the site of action was the blood pool itself, these parameters provide an accurate estimate of the target human plasma levels required for efficacy in a 20NHS PEG-htCBS clinical trial.
Interspecies comparisons were conducted based upon body surface area scaling assuming an 80% bioavialability in all 3 species (mouse, rat and monkey) to determine if a linear correlation existed between the log body weight and the log of various PK parameters (AUC/dose, Cmax per dose and T1/2). […] Linear correlations allow predictions of the clinical dose and dosing regimen from the preclinical data to be made.
By extrapolating to the log body weight for humans (70 kg) for each parameter, the AUC/dose, Cmax/dose, and T1/2 was calculated for human subjects.
The human predicted efficacious dose was calculated from the efficacious dose in mice (5 mg/kg) by allometric scaling to be 0.4 mg/kg in a 70 kg human.

[3] = 7.5 mg/kg SC 3x/week from day 2, 24 hours after last injection, mean ± SEM
[4] = 7.5 mg/kg SC 3x/week from day 2, mean ± SEM
[5] = body surface area scaling, 70 kg human
[6] = human, 0.33 mg/kg SC 1x/week (168 h)
[7] = human, 0.33 mg/kg SC 2x/week (84 h)
[8] = human, 0.66 mg/kg SC 1x/week (168 h)
[9] = human, 0.66 mg/kg SC 2x/week (84 h)
[10] = human, 1 mg/kg SC 1x/wk (168 h)

20NHS PEG-htCBS C15S: htCBS C15S PEGylated with ME-200GS PEG (20 kDa linear NHS ester-activated PEG)
Cystathionine in plasma (Hcy, Cys, Cth, and Met; [3]): 133.2 ± 9.1 µM
Cysteine in plasma (Hcy, Cys, Cth, and Met; [3]): 211.7 ± 11.5 µM
Homocysteine in plasma (Hcy, Cys, Cth, and Met; [3]): 52.8 ± 6.8 µM
Methionine in plasma (Hcy, Cys, Cth, and Met; [3]): 99.2 ± 5.4 µM
Cystathionine in brain tissue (Hcy, Cys, Cth, and Met; [4]): 8.5 ± 1.1 nmols/g
Cystathionine in kidney tissue (Hcy, Cys, Cth, and Met; [4]): 256.0 ± 77.5 nmols/g
Cystathionine in liver tissue (Hcy, Cys, Cth, and Met; [4]): 18.9 ± 1.8 nmols/g
Cysteine in brain tissue (Hcy, Cys, Cth, and Met; [4]): 56.8 ± 3.0 nmols/g
Cysteine in kidney tissue (Hcy, Cys, Cth, and Met; [4]): 282.8 ± 17.1 nmols/g
Cysteine in liver tissue (Hcy, Cys, Cth, and Met; [4]): 205.2 ± 27.4 nmols/g
Homocysteine in brain tissue (Hcy, Cys, Cth, and Met; [4]): 1.1 ± 0.1 nmols/g
Homocysteine in kidney tissue (Hcy, Cys, Cth, and Met; [4]): 6.76 ± 4.42 nmols/g
Homocysteine in liver tissue (Hcy, Cys, Cth, and Met; [4]): 22.4 ± 3.4 nmols/g
Methionine in brain tissue (Hcy, Cys, Cth, and Met; [4]): 68.6 ± 4.7 nmols/g
Methionine in kidney tissue (Hcy, Cys, Cth, and Met; [4]): 53.3 ± 2.9 nmols/g
Methionine in liver tissue (Hcy, Cys, Cth, and Met; [4]): 25.5 ± 3.4 nmols/g
plasma Cth (Hcy, Cth, Cys, Met; −/− I278T on MRD diet): 10 µM
plasma Hcy (Hcy, Cth, Cys, Met; −/− I278T on MRD diet (41 μM untreated)): 2 µM
plasma Cth (Hcy, Cth, Cys, Met; −/− I278T on REG diet): 113 µM
plasma Met (Hcy, Cth, Cys, Met; −/− I278T on REG diet): 66 µM
plasma Hcy (Hcy, Cth, Cys, Met; −/− I278T on REG diet (356 μM untreated)): 50 µM
plasma Hcy (Hcy, Cth, Cys, Met; −/− I278T on REG diet (356 μM untreated), listed as OT-58): 51 µM
plasma Cys (Hcy, Cth, Cys, Met; −/− I278T, MRD diet and/or treatment): normalize plasma levels of Cys
single dose producing maximal efficacy response ([1]; SC, HO mouse model): 5 mg/kg
plasma levels of Hcy over time ([1]; single 10 mg/kg SC dose): remain decreased up to 72 hours
Initial Cmax, predicted ([2]; 0.33 mg/kg): 11.3 mU/μL
Initial Cmax, predicted ([2]; 0.66 mg/kg): 22.6 mU/μL
Initial Cmax, predicted ([2]; 1 mg/kg): 34 mU/μL
AUC/dose, human predicted value [2, 5]: 7474 (mU-h/mL)/(mg/kg)
Cmax/dose, human predicted value [2, 5]: 34 (mU/μL)/(mg/kg)
E intercept of hypothetical single dose PK curve ([2]; human): 43.079
Peak @ SS, predicted [2, 6]: 22.6 mU/μL
Trough @ SS, predicted [2, 6]: 15.4 mU/μL
Peak @ SS, predicted [2, 7]: 41 mU/μL
Trough @ SS, predicted [2, 7]: 34.5 mU/μL
Peak @ SS, predicted [2, 8]: 45.2 mU/μL
Trough @ SS, predicted [2, 8]: 30.8 mU/μL
Peak @ SS, predicted [2, 9]: 82 mU/μL
Trough @ SS, predicted [2, 9]: 69 mU/μL
C1min, predicted [2, 10]: 22.3
Peak @ SS, predicted [2, 10]: 67.9 mU/μL
Trough @ SS, predicted [2, 10]: 46.2 mU/μL
C1min, predicted ([2]; human, 1 mg/kg SC 2x/wk (84 h)): 29.0
Peak @ SS, predicted ([2]; human, 1 mg/kg SC 2x/wk (84 h)): 123 mU/μL
Trough @ SS, predicted ([2]; human, 1 mg/kg SC 2x/wk (84 h)): 109 mU/μL
Extrapolated concentration ([2]; human, 0 hours): 0
Extrapolated concentration ([2]; human, 1 hours): 0.9
Extrapolated concentration ([2]; human, 2 hours): 2
Extrapolated concentration ([2]; human, 4 hours): 4.3
Extrapolated concentration ([2]; human, 8 hours): 8
Extrapolated concentration ([2]; human, 20 hours): 20
Extrapolated concentration ([2]; human, 48 hours): 33.3
Extrapolated concentration ([2]; human, 72 hours): 34
Extrapolated concentration ([2]; human, 96 hours): 28
Extrapolated concentration ([2]; human, 240 hours): 16.7
Extrapolated concentration ([2]; human, 336 hours): 12
Extrapolated concentration ([2]; human, 408 hours): 8.5
